Source: publication PMC8844851 (The Journal of Biological Chemistry, 2022)

Molecular target: T1, C-terminally FLAG-tagged Cdc123 (S. cerevisiae, UniProt Q05791 1-360)
T1 construct: Cdc123 of S. cerevisiae; also called Cdc123^FLAG; source: S. cerevisiae, in lysate; not shown: FLAG, C-terminal, kept
T1 sequence (looked up): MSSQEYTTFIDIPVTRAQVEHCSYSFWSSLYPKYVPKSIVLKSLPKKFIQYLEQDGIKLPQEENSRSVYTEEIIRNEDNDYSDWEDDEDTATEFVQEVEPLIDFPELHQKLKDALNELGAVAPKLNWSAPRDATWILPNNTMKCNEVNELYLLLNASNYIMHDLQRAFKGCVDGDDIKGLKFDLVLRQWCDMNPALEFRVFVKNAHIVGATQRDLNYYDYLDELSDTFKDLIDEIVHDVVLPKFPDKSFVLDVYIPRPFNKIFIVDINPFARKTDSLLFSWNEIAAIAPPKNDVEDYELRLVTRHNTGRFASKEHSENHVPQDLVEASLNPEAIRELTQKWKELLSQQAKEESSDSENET
Test: co-IP; Cdc123-FLAG precipitated with anti-FLAG beads from yeast extract, 4 °C, 2 h; subunit signal in IP normalised to whole cell extract, Gcd11 set to 100% (n = 3); also SUI2/SUI2 against sui2Δ/SUI2 diploid strains (n = 4)
Conditions: partners not purified

B1: yeast eIF2γ (Gcd11) (natural protein, UniProt P32481 1-527, looked up)
chain: MSDLQDQEPSIIINGNLEPVGEPDIVEETEVVAQETQETQDADKPKKKVAFTGLEEDGETEEEKRKREFEEGGGLPEQPLNPDFSKLNPLSAEIINRQATINIGTIGHVAHGKSTVVRAISGVQTVRFKDELERNITIKLGYANAKIYKCQEPTCPEPDCYRSFKSDKEISPKCQRPGCPGRYKLVRHVSFVDCPGHDILMSTMLSGAAVMDAALLLIAGNESCPQPQTSEHLAAIEIMKLKHVIILQNKVDLMREESALEHQKSILKFIRGTIADGAPIVPISAQLKYNIDAVNEFIVKTIPVPPRDFMISPRLIVIRSFDVNKPGAEIEDLKGGVAGGSILNGVFKLGDEIEIRPGIVTKDDKGKIQCKPIFSNIVSLFAEQNDLKFAVPGGLIGVGTKVDPTLCRADRLVGQVVGAKGHLPNIYTDIEINYFLLRRLLGVKTDGQKQAKVRKLEPNEVLMVNIGSTATGARVVAVKADMARLQLTSPACTEINEKIALSRRIEKHWRLIGWATIKKGTTLEPIA
notes: Gcd11, eIF2 gamma subunit of S. cerevisiae, untagged endogenous protein detected with antiserum; source: endogenous, S. cerevisiae (W303 derivatives) lysate
B1 was tested, and the “fold increase of coprecipitation in the sui2Δ/SUI2 strain over SUI2/SUI2” value was 1.3 fold.
